According to US12728086B2, “Sunscreens derived from kynurenines and other UV-absorbing oxidized amino acids bound to peptides or polymers” (The Trustees of Princeton University, priority 2021, dated 2026):
“And” between values parts separate entries of the source, which are not always exact repeats. Equal entries are not always repeated.

Assay: UV-visible spectroscopy of oxidized or kynurenine-modified amino acids, peptides, proteins and polymers
Type: physicochemical
Experimental: A prototype of oxidized amino acid-bearing peptides from enzymatic hydrolysate of pea protein was made. […] More particularly, peptides derived from enzymatic hydrolysis of pea protein (Sigma, 16974) were oxidized in 50 mM sodium phosphate buffer at room temperature using ozone bubbled through the solution (A2Z Ozone Inc., MP1000).
A prototype of kynurenine-bearing polymers was produced from enzymatic hydrolysis of soy protein generating starting peptide material. The soluble peptides were then oxidized in a semi-sealed container into which ozone was pumped.
This was done with bovine serum albumin buffer exchanged with into 50 mM sodium phosphate pH 6.5 to remove small molecule impurities.
The polymeric lysine (8.8 mg) was suspended in 200 microliters of 50 mM sodium bicarbonate pH 9.5 and treated with DL-kynurenine (Sigma 61250) (~1 mM) for 44 hours at 37° C. in the dark. […] Controls of poly-lysine with no added kynurenine and that of kynurenine without poly-lysine were run concurrently. […] Soy peptides were used similarly, though they also contain other potential nucleophilic residues besides lysine to which kynurenine monomers could be added, including cysteine and histidine. These soy peptides were generated from overnight incubation at 37° C. of soy protein powder (5 g/100 mL deionized water) using porcine pepsin (0.5 mg/mL) all brought to pH 2.0 using hydrochloric acid. After this incubation, insoluble material was removed via centrifugation, and the clarified solution was brought to pH 9.5 using sodium hydroxide. This soy peptide solution was added in two parts to one part 50 mM sodium bicarbonate pH 9.5. To 1 mL of soy peptide solution was added 0.2 mL DLkynurenine (final 1 mM), and this was incubated for 44 hours at 37° C. in the dark. To isolate peptides from free kynurenine to determine if kynurenine monomers were added by UV-visible spectroscopy, small molecules and even some small peptides were removed with size exclusion (Sephadex G-50, GE Healthcare).

[1] = after treatment with ozone, UV-visible spectroscopy
[2] = after incubation with DL-kynurenine (44 hours, 37° C., pH 9.5) and size exclusion

Row | Compound | region of increased absorbance [1] | region of increased absorbance [2] | wavelength of absorbance increase in the UVA [2]
1 | bovine serum albumin: bovine serum albumin stirred under a stream of ozone for 8 hours | 300-350 nm | – | –
2 | poly-L-lysine | – | 300-400 nm | around 360 nm
3 | N[C@@H](Cc1c[nH]c2ccccc12)C(=O)O [L-tryptophan] | 300 to 400 nm and 300-400 nm | – | –
4 | NC(CC(=O)c1ccccc1NC=O)C(=O)O (centres unmarked) [N-formyl kynurenine] | 300-350 nm | – | –
